# Test results published in patent publication US20150119254.
# Tests used:
# [1] = system: T1, VEGF-165 (Homo sapiens), P15692-4; assay: SPR; details: for binding signal: 10 nM VEGF-165, 930 s
# T1 sequence: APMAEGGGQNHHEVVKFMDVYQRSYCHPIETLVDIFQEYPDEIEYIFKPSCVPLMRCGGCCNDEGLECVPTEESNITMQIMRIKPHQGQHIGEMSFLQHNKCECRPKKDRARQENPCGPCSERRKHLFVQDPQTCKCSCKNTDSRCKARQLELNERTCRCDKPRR
# [2] = biological target: T2, IFN-gamma (UniProt P01579); assay: SPR; details: Ds at n; for binding signal: 150 nM IFN-gamma, 930 s
# T2 sequence: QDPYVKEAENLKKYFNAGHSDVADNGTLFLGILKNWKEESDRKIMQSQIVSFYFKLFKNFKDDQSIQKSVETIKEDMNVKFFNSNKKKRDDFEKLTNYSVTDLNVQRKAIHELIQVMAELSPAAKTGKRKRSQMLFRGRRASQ
# [3] = Ds at n, PBS + 0.005% NP-40, 25 C
sequence,measurement,setting,value
ACTGCGTCCGAAGGGGCNTGCAGTGANCCCGAATGGGTCCG [VGd1-2Ds-41],Kd,"[1]; Ds at n, 25 C",0.069 nM
ATCAGTCCACAAAGTGCTGGGTCCGNATGGCGGGGGGTTAGGCCTCTTTGGGGCGG [VG01Ds-57],binding signal,[1]; Ds at n,0.2 bound ratio
ATCAGTCCACATACGCGGGGGTGTTGAAGGGTTAGTCGGANGTAGTGTGTACAGAG [VG02bDs-57],binding signal,[1]; Ds at n,0.39 bound ratio
ATCAGTCCACATCGAGCGTGAGGTCCGAAAGGCGACTCTTNTAACATCAAGTAATG [VG02aDs-57],binding signal,[1]; Ds at n,0.15 bound ratio
ATCAGTCCACATTGGACTTAGCCCAGCAAGACAATCTACGNTATGCCAGAAGTTGG [IF02Ds-57],binding signal,[2],0.03 bound ratio
ATCAGTCCACCTATGTGGGTTGGNTGGGGTGTATGTTNGTAGGGCTANGGAGGTGG [IF11Ds-57],binding signal,[2],0.66 bound ratio
ATCAGTCCACGAGATGGATGGTAGTGGCCGNACGGGGGGGNTGGAGANGCTGGCTG [VG08Ds-57],binding signal,[1]; Ds at n,0.21 bound ratio
ATCAGTCCACTAATCAGGAAGANGATAGGGTTTGTCTTNTGTTGCCACGCTGGGAG [IF04Ds-57],binding signal,[2],0.1 bound ratio
ATCAGTCCACTCCTTCTGTCATNGGGCAGGCGCNTTTGGTGTAGNGTTTATCTTGG [IF07aDs-57],binding signal,[2],0.07 bound ratio
ATCAGTCCACTCGGGTCGTTTANTAATGTAGGTNTGGGCTAGGCNGCTAGTGGATG [IF07bDs-57 (Table 14)],Kd,"[2]; 205 mM NaCl phosphate pH 7.4, 25 C",0.8 nM
ATCAGTCCACTCGGGTCGTTTANTAATGTAGGTNTGGGCTAGGCNGCTAGTGGATG [IF07bDs-57],Kd,"[2]; Bound 0.72 (Table 13), 25 C",2 nM
CCGGTAAACTGCGTCCGAAGGGGCNTGCAGTGANCCCGAATGGGTCCGG [VGd1-2Ds-49],Kd,[1]; [3],0.0046 nM
CGGTAAACTGCGTCCGAAGGGGCATGCAGTGAACCCGAATGGGTCCG [VGd1-2A-47],Kd,[1]; 25 C,0.2 nM
CGGTAAACTGCGTCCGAAGGGGCNTGCAGTGANCCCGAATGGGTCCG [VGd1-2Ds-47],Kd,[1]; [3],0.0046 nM
GTAAACTGAGTCCGAAGGGGCNTGCAGTGANCCCGAATGGGTCCG [VG20Ds-45],Kd,"[1]; Ds at n, 25 C",0.022 nM
GTAAACTGCGTCCGAAGGGGCATGCAGTGANCCCGAATGGGTCCG [VGd1-ADs-45],Kd,"[1]; Ds at n, 25 C",0.037 nM
GTAAACTGCGTCCGAAGGGGCNTGCAGTGAACCCGAATGGGTCCG [VGd1-DsA-45],Kd,"[1]; Ds at n, 25 C",0.094 nM
GTAAACTGCGTCCGAAGGGGCNTGCAGTGANCCCGA [VGd1-2Ds-36b],Kd,"[1]; Ds at n, 25 C",0.017 nM
GTAAACTGCGTCCGAAGGGGCNTGCAGTGANCCCGAATGGG [VGd1-2Ds-41b],Kd,"[1]; Ds at n, 25 C",0.06 nM
GTAAACTGCGTCCGAAGGGGCNTGCAGTGANCCCGAATGGGTCCG [VGd1-2Ds-45],Kd,"[1]; Ds at n, 25 C",0.016 nM
GTCCGAAGGGGCNTGCAGTGANCCCGAATGGGTCCG [VGd1-2Ds-36],Kd,"[1]; Ds at n, Bound 0.02, 25 C",4.6 nM
TCAGTCCACGGTAAACTGAGTCCGAAGGGGCNTGCAGTGANCCCGAATGGGTCCGG [VG20Ds-57],Kd,"[1]; Ds at n, printed as uM, evidently pM, 25 C",0.0059 nM
TCCACTCGGGTCATTTANTAATGTAGGTNTGGGCTAGGCNGCTAGTGGA [IFd1-3Ds-49],Kd,"[2]; 205 mM NaCl, 25 C",1.6 nM
TCGGGTCATTTAATAATGTAGGTATGGGCTAGGCNGCTAGTGGAT [IFd1-AADs-45],Kd,"[2]; 205 mM NaCl, 25 C",113 nM
TCGGGTCATTTAATAATGTAGGTNTGGGCTAGGCNGCTAGTGGAT [IFd1-A2Ds-45],Kd,"[2]; 205 mM NaCl, 25 C",20 nM
TCGGGTCATTTANTAATGTAGGTATGGGCTAGGCNGCTAGTGGAT [IFd1-DsADs-45],Kd,"[2]; 205 mM NaCl, 25 C",127 nM
TCGGGTCATTTANTAATGTAGGTNTGGGCTAGGCAGCTAGTGGAT [IFd1-DsDsA-45],Kd,[2]; Bound 0.36,> 200 nM
TCGGGTCATTTANTAATGTAGGTNTGGGCTAGGCNGCTAGTGGAT [IFd1-3Ds-45],Kd,"[2]; 205 mM NaCl, 25 C",15 nM
TCGGGTCGTTTANTAATGTAGGTNTGGGCTAGGCNGCTAGTGGAT [IF07bDs-45],Kd,"[2]; 205 mM NaCl, 25 C",20 nM
TGACCTCGGGTCATTTANTAATGTAGGTNTGGGCTAGGCNGCTAGGTCA [IFd1-3Ds-49b],Kd,"[2]; 205 mM NaCl, 25 C",1.1 nM
TGTCTAAGTAAGGTGGGATTGGCGGGGATGTCGGA [Ds-09-1-AAA],Kd,[1]; retention 28%,> 100 nM
TGTCTAAGTAAGGTGGGNTTGGCGGGGNTGTCGGA [Ds-09-1-ADsDs],Kd,"[1]; Ds at n, PBS + 0.05% NP-40, 25 C, retention 94%",1 nM
TGTCTAAGTANGGTGGGATTGGCGGGGNTGTCGGA [Ds-09-1-DsADs],Kd,"[1]; Ds at n, retention 33%",> 100 nM
TGTCTAAGTANGGTGGGNTTGGCGGGGATGTCGGA [Ds-09-1-DsDsA],Kd,"[1]; Ds at n, retention 32%",> 100 nM
TGTCTAAGTANGGTGGGNTTGGCGGGGNTGTCGGA [Ds-09-1-DsDsDs],Kd,"[1]; Ds at n, PBS + 0.05% NP-40, 25 C, retention 92%",4 nM
TGTCTAAGTANTGTGGGNTTGGAGGGGNTGTCGGA [Ds-09-1-mDsDsDs],Kd,"[1]; Ds at n, retention 90%",50 nM
TTTTTGTAAACTGCGTCCGAAGGGGCNTGCAGTGANCCCGAATGGGTCCG [VGd1-2Ds-50],Kd,"[1]; Ds at n, 25 C",0.017 nM
